# Test results published in the DeepSol protein solubility set.
# Assay: soluble on expression in E. coli; label from the status in PepcDB or PDB records
row,Sequence,soluble on expression in E. coli
1,MRGYFIVLEGIDGSGKTTQAKLLAEWFEDKGYEVLLTKEPTDSELGKLIRRIILEESVIDGSKISYEAEALLFAADRAEHVKKIILPALSEGKVVICDRYFYSSLAYQWARGLDLNWLIQVNSFAPRPDLAILLDLPVKESLRRIKLRGTLTEFDKIVELQRKVRHNYLKLAEMFPEMRIVNALSSIEDIHSDIVALVKHELLGL,soluble
2,MHEITLCQRALELIEQQASAYGAKRVTAVWIKIGAFSCVETSALSFCFDLVCRGTIAEGCKLHLEEQEAECWCEHCQQYVTLLTHRVRRCPQCHSDTLRIVADDGLQIRRIEIDETED,not soluble
3,MTTPRWLTQDEQSLWRLFLAMERKVTRGIDEELQSSQGLTTPEFSVLVSLSERPGHEIRLRDLCESLQWDRSRTSHQITRMQRRGLVTKTKCSDDARGVFVELTPEGEKRLREAAPGHVDVVRKLIFDVMTEEEAAVLRGYFQKVIDVQCGASTGNPLDD,not soluble
4,MGSDKIHHHHHHMFVDTTLRDGHQSLIATRMRTEDMLPALEAFDRMNFHSMEVWGGATFDVAVRFLNENPWERLKKIREGLKNTKIQMLLRGQNLVGYRHYADDVVELFIKKVAEYGLDIIRIFDALNDERNLQKSIEESKKHGLHVQVAISYTVSPVHTLDYYLDFARKLLDMGVDSICIKDMAGLLTPKRAYELVRALKEKFGVPVEVHSHCTTGFAPLAYQAAYEAGADFFDTAISPFSMGTSQPTFETMYYAFRGNGKEDFDREALKFLVDHFTKVRMKYIEYDVGMKYPDSRIIFSQIPGGMYSNLLKQLKEQRMEHLLDKVLEEVPRVQKDLGYPPLVTPTSQIVGVQAFLNVVYGRYERITNETRNYVKGLYGRPPAPIDPELMRKILGDEKPIDCRPADLLEPELDKTRKELGILVETDEDLLIAVILGEVGKKFLRKKYEEKIGVDFNYLESLSDFTDDMPVYPV,not soluble
5,VVFVTVGTTSFDALVKAVVSQNVKDELQKRGFTHLLIQMGRGIFFPTKCDGADGSLVVDYFTFSSSIADYIRSASLVISHAGSGSIFETLKLGKPLIVVVNEDLMDNHQCELAEALEERKHLYYTRPHSLHQTLTKMELGSLVQYTPGDGTPVARIIDRFLGFPDD,not soluble
6,MTIAIVIGTHGWAAEQLLKTAEMLLGEQENVGWIDFVPGENAETLIEKYNAQLAKLDTTKGVLFLVDTWGGSPFNAASRIVVDKEHYEVIAGVNIPMLVETLMARDDDPSFDELVALAVETGREGVKALKAKPFAG,soluble
7,MGAASCEDEELEFKLVFGEEKEAPPLGAGGLGEELDSEDAPPCCRLALGEPPPYGAAPIGIPRPPPPRPGMHSPPPRPAPSPGTWESQPARSVRLGGPGGGAGGAGGGRVLECPSIRITSISPTPEPPAALEDNPDAWGDGSPRDYPPPEGFGGYREAGAQGGGAFFSPSPGSSSLSSWSFFSDASDEAALYAACDEVESELNEAASRFGLGSPLPSPRASPRPWTPEDPWSLYGPSPGGRGPEDSWLLLSAPGPTPASPRPASPCGKRRYSSSGTPSSASPALSRRGSLGEEGSEPPPPPPLPLARDPGSPGPFDYVGAPPAESIPQKTRRTSSEQAVALPRSEEPASCNGKLPLGAEESVAPPGGSRKEVAGMDYLAVPSPLAWSKARIGGHSPIFRTSALPPLDWPLPSQYEQLELRIEVQPRAHHRAHYETEGSRGAVKAAPGGHPVVKLLGYSEKPLTLQMFIGTADERNLRPHAFYQVHRITGKMVATASYEAVVSGTKVLEMTLLPENNMAANIDCAGILKLRNSDIELRKGETDIGRKNTRVRLVFRVHVPQGGGKVVSVQAASVPIECSQRSAQELPQVEAYSPSACSVRGGEELVLTGSNFLPDSKVVFIERGPDGKLQWEEEATVNRLQSNEVTLTLTVPEYSNKRVSRPVQVYFYVSNGRRKRSPTQSFRFLPVICKEEPLPDSSLRGFPSASATPFGTDMDFSPPRPPYPSYPHEDPACETPYLSEGFGYGMPPLYPQTGPPPSYRPGLRMFPETRGTT,soluble
8,MSESAFKDCFSTDVSADTRLFHFLARDYIVQEGQQPSWLFYLTRGRARLYATLANGRVSLIDFFAAPCFIGEIELIDKDHEPRAVQAIEECWCLALPMKHYRPLLLNDTLFLRKLCVTLSHKNYRNIVSLTQNQSFPLVNRLAAFILLSQEGDLYHEKHTQAAEYLGVSYRHLLYVLAQFIHDGLLIKRKDI,not soluble
9,MSLRKLLKKTLFSNIIILCLYLGILKCVNSHISNEIQKQNQTFDKENLESKNTQNLQKSKNPTSQLSKTILKEEFNFLPNDVEINWKGRVLVIGDIHGDLKSLITSLFLSGVINSNLDWIAKNTLLIQLGDVVDRGSHALQIYKLFNKLKSQAPSLGSKFVGLLGNHEVMNLCGQLHYVTDEDFQTYGGRDNRTFEWSKEGFVGKYLRTMKLAIRVNDSLYVHAGLLPKYAKLGLDKLDKLSNDLLEGDFCDFYSSLFFVEDGPLWTRDISLGEEEKACKLVDETLQILGLSRMVVGHTIQHDNRINIKCDNKLILADTGFSEAIYGKPCMLEILYHNDNPDPSNYKSFHPYSINELQVKSNPSKPNIKYIQVTSLFLDKTSTRDEGHHHHHH,soluble
10,MNPSMKQKQEEIKENIKNSSVPRRTLKMIQPSASGSLVGRENELSAGLSKRKHRNDHLTSTTSSPGVIVPESSENKNLGGVTQESFDLMIKENPSSQYWKEVAEKRRKALYEALKENEKLHKEIEQKDNEIARLKKENKELAEVAEHVQYMAELIERLNGEPLDNFESLDNQEFDSEEETVEDSLVEDSEIGTCAEGTVSSSTDAKPCI,soluble
11,MSLNSEWGKFALWLKHQRISPAELLVPQPQEKLTGWSDPRISQERILGLLARGHSLALAVDKWQRAGLWILTRGDADYPVRLKNRLRTDAPPVLFGCGNKALLQAEGMAIVGSRDAPTDDLRYTQQLAAKLAQQGICVISGGARGIDECAMASALEAGGTAVGVLADSLLKTSTLVKWREGLIAGNLVLISPFYPEVRFTVGNAMARNKYIYCLAESAMVVRAGMTGGTITGAMEALKHQWLPVQVKPNQDMQSANSRLVENGASWSAEQAENVTIRLPDVPGLMYDRAEGHHHHHH,soluble
12,MGSDKIHHHHHHMETWRFIDSGDRDPAYNMALDEALLNWHSEGLIPPTIRFYGWNPPTLSIGYFQKVQKEINMEMVEKHQLGFVRRPTGGRGVLHDKELTYSVIVTEEHPDMPASVTEAYRIISQGILEGFRDLGLDAYFAVPKTEEEKNALKNPRSAVCFDAPSWYELVVEGRKVAGSAQTRQKGVILQHGSIVLDIDEDKLFDLFNYPSERVRERMQRNFKNKAVPINELRDVPLSMEEVKKAFKDGFEKGLSIKLEPYTLTDAEEAEVKQIAKERYETDEWNFRK,not soluble
13,MGSDKIHHHHHHMQNLPIYLYPNTLDVILDSGATTKGVNRVMYQHELKIQKGIKNKVRIQFKNSDQKRIVTSGTYVFSMYDAINQRLLLEKPLDILDDGTTFALRGLAELTLTENDTMDLDVSKYQFSVKYLDEDGTYLPTYSNTYYGVTGTLNLLQDVYPVLQPSQEITSFDRTYDDSIQLYQWRSGNIYATPEFNGNSALHTIAMYMTGFKGKVLVQGTLYNTPSSFNRYVTLGRKRV,not soluble
14,MKAAAKRISDGVYWTGVLDWDLRNYHGYTLQGTTYNAYLVCGDEGVALIDNSYPGTFDELMARVEDALQQVGMERVDYIIQNHVEKDHSGVLVELHRRFPEAPIYCTEVAVKGLLKHYPSLREAEFMTVKTGDVLDLGGKTLTFLETPLLHWPDSMFTLLDEDGILFSNDAFGQHLCCPQRLDREIPEYILMDAARKFYANLITPLSKLVLKKFDEVKELGLLERIQMIAPSHGQIWTDPMKIIEAYTGWATGMVDERVTVIYDTMHGSTRKMAHAIAEGAMSEGVDVRVYCLHEDDRSEIVKDILESGAIALGAPTIYDEPYPSVGDLLMYLRGLKFNRTLTRKALVFGSMGGNGGATGTMKELLAEAGFDVACEEEVYYVPTGDELDACFEAGRKLAAEIRR,soluble
15,MTTSSHGLEKAMELAKFSKSQKERAREILEAGLLEATYGHLAPSSNFVGGMCVGNVSPGGEPVNLNAKVTGYLPKIKEMAEKHGVAQYVGILAAQMMQESQGEGNDPMQAAEGHYGDLSSSCIGLKGSARIGCIKDPNISIEAGVQEFKDVLAKANGDIALALQSYNYGPGFISYALAKGGYSEETAIAFSREHAGENPAGCSDPNNFRTKVGACYGDFTYVSKILKYYKDLGCVTAGDGEWISDKGWKWPTKSGRITDTFDAVRNGKQHNAVDIGAMTAGKPGDPVWSMEAGVVTAQTGYVNYGGLGVYIDHGNGIVSRYLHLSKISVTPGTMVTKGQIIGEMGGSNYVGGVLNMLGYAVHLDFQIRINDQPTDPMKFFKKNDDPGLSSGGSPTMTNAKRQKVLEEAKKWLGQGKVRYVLGDRNPPGGTSDCSGFTQYVFRTSIGVQLGDWTGAQVGQGKQVPDINHAQPGDLIFYENPGHVAIYMGNQKMIHIGDNKGVQITGLNYTARGQHMTQIRNVID,not soluble
16,SERCDDWGLDTMRQIQVFEDEPARIKCPLFEHFLKFNYSTAHSAGLTLIWYWTRQDRDLEEPINFRLPENRISKEKDVLWFRPTLLNDTGNYTCMLRNTTYCSKVAFPLEVVQKDSCFNSPMKLPVHKLYIEYGIQRITCPNVDGYFPSSVKPTITWYMGCYKIQNFNNVIPEGMNLSFLIALISNNGNYTCVVTYPENGRTFHLTRTLTVKVVGSPKNAVPPVIHSPNDHVVYEKEPGEELLIPCTVYFSFLMDSRNEVWWTIDGKKPDDITIDVTINESISHSRTEDETRTQILSIKKVTSEDLKRSYVCHARSAKGEVAKAAKVKQKGNRCGQ,soluble
17,MNSAWALLRLASPQLPIGGYSYSQGLEMAVEQSIVIDPQTAGRWIGDQLLLNLARFEAPLLLAHCEAAAVGDWGQLLQVSEQHRASRETRELHQESRQMGYSLQQLLNGLPELDRDARRFLEQTTEPHLALGWALAARTWRISPQDALAAWLWSWLENQLAVLMKTLPLGQQAAQRLTSELLPLLQQAQVNASAQDTHPAGSAAFGLALASMAHERQYSRLFRS,soluble
18,MGSDKIHHHHHHMSHPPLIVHVIFHLGVGGLENGLVNLINHIPADRYRHAIICLKGFSEFHKRLNRDDVEIIALNKREGKDFSVYGKLYRVFRQLKPDIVHTRNLTAMEAQVVAAVAGVKARVHGEHGRDIFDLDGKNWKYNLLRKAIRPFIHHFITVSKDLENWLIDTVKVSPVKVHQIYNGVEHLRFHPGGTVPVEIFPPDFFAGRPFVVGSVGRMAAVKDFPTLVQAFLMLRNELSEIDRPLRLIIAGEGVARAECEAMLRSAGVEQFAWLPGERDDIPQLMQAMDVFVLPSLGEGISNTVLEAMASGLPVIATRVGGNTELVLEGETGRLVPSGDPVALARAISQYHQDNTAVYKHGQHARAIIEQQFSMRSMTNGYLAVYDRVLGYKSKTETIN,not soluble
19,GATCLSQYCADKARDGVCDEACNSHACQWDGGDCSLTMENPWANCSSPLPCWDYINNQCDELCNTVECLFDNFECQGNSKTCKYDKYCADHFKDNHCNQGCNSEECGWDGLDCAADQPENLAEGTLVIVVLMPPEQLLQDARSFLRALGTLLHTNLRIKRDSQGELMVYPYYGEVAGSKVFLEIDNRQCVQDSDHCFKNTDAAAALLASHAIQGTLSYPLVSVVSESLTPERTQ,soluble
20,ADDAKPRVKVPSSAKAGETVTVKALISHKMESGQRKDADGKLIPRSIINRFTCELNGVNVVDVAIDPAVSTNPYFEFDAKVDAAGEFKFTWYDDDGSVYEDVKPIAVA,soluble
21,MNTHYVGPVLYTPKENVSEKLLKLFDADQPIIFCYTARFYDNVGESGKAIFDNMIKIADKIDASIIISTGNKKDELLALDIASKELKSGKVSIVDYVPLDMAYEKSDLVIHHGGHGSCLAQFYYGVPSVIIPTHTEREYNARMCEKLHVGKMLPRRELNSANLKNCINDVLNDITYKKSVRDWKEKVSGLEHHHHHH,not soluble
